doi:10.1101/2021.06.06.447285 (bioRxiv, 2021)

Molecular target: the molecule itself
Experiment: native gel or EMSA + other: dynamic light scattering + other: negative-stain TEM

B1: Encapsulin from Thermotoga maritima (natural protein)
chain: MEFLKRSFAPLTEKQWQEIDNRAREIFKTQLYGRKFVDVEGPYGWEYAAHPLGEVEVLSDENEVVKWGLRKSLPLIELRATFTLDLWELDNLERGKPNVDLSSLEETVRKVAEFEDEVIFRGCEKSGVKGLLSFEERKIECGSTPKDLLEAIVRALSIFSKDGIEGPYTLVINTDRWINFLKEEAGHYPLEKRVEECLRGGKIITTPRIEDALVVSERGGDFKLILGQDLSIGYEDREKDAVRLFITETFTFQVVNPEALILLKF
B1: binds.
